Experimental data as given in patent US20200040039A1 (FUJIFILM, published 2020).
Values belong to the binder of their own block, whether it stands above or below them. Positions of bridges follow the written chain, without caps; N, C: chain ends. Non-standard residues stand in square brackets, D forms with d. thiazoline = not defined here

Columns and labels:
[1] = biological target: T1, MCL-1 (amino acid 1-172 portion) with a His6 tag, MBP and a TEV protease recognition sequence on the N … (UniProt Q07820 1-172); test: SPR, Biacore T200, Mcl-1 immobilised on CM5, peptide as analyte, equilibrium analysis, as for Table 51; grade A = KD of less than 50 µmol/L
T1 construct: range 1-172; Expressed in E. coli BL21 (DE3) RIPL, purified on Ni-NTA, dialysed; tags are not reported as removed; Immobilised by amine coupling on a CM5 chip for SPR; A different construct (3xFLAG-tagged, His6/MBP cleaved) was used for panning only; also called target protein; not shown: His6 tag from the pET28a construct; no cleavage is described for this preparation

[2] = biological target: T1, MCL-1 (amino acid 1-172 portion) with a …; test: SPR, Biacore T200, 25 C, Mcl-1 amine-coupled on CM5, peptide as analyte, equilibrium analysis; grade B = KD of 50 µmol/L or more
Method: A buffer obtained by adding dimethylformamide (DMF) or dimethylsulfoxide (DMSO) to a final concentration of 1 vol % to HBS-EP+(manufactured by GE Healthcare Inc.) was used as a running buffer. Mcl-1 was immobilized on a Biacore Sensor Chip Series S Sensor Chip CM5 (manufactured by GE Healthcare Inc.) using an Amine Coupling Kit (manufactured by GE Healthcare Inc.). In order to measure the dissociation constant (KD), each synthetic peptide was added at multiple concentrations to obtain a sensorgram of binding to immobilized Mcl-1.
The analysis of the obtained sensorgram was carried out using T200 evaluation software (manufactured by GE Healthcare Inc.). Solvent correction to DMF or DMSO was carried out, and then the KD was determined by equilibrium value analysis using a sensorgram obtained by subtracting the sensorgram to a flow cell in which Mcl-1 is not immobilized.

T1 sequence (Q07820 1-172): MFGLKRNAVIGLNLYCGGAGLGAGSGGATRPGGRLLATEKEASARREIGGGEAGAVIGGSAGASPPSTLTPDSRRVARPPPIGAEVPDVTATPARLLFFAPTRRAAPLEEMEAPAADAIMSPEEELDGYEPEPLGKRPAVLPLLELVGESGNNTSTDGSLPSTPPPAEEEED

Kd [1]: < 50 µM
B1: Cyclic peptide a-6-1 (peptide)
peptide: CEYCDPTFWPLFRR[3‑(5-cyanothiophen-3-yl)alanine]-NH2
modifications: bridge N-15 via thiazoline; cysteine pairing not given here; reading uncertain
notes: MS 1993.3 (M+H); Structure itself only in a drawing

Kd [2]: ≥ 50 µM
B2: Cyclic peptide a-5-1 (peptide)
peptide: CRSWACLWPAFLWY[3‑(6-cyanopyridin-2-yl)Ala]-NH2
modifications: bridge N-15 via thiazoline; cysteine pairing not given here; reading uncertain
notes: MS 1957.6 (M+H); Structure itself only in a drawing

Kd [2]: ≥ 50 µM
B3: Cyclic peptide a-5-3 (peptide)
peptide: CFALLWPQFLPLAF[3‑(6-cyanopyridin-2-yl)Ala]-NH2
modifications: bridge N-15 via thiazoline; reading uncertain
notes: MS 1821.3 (M+H); Structure itself only in a drawing
